Measured values published in the RNAGym collection of RNA variant scans (doi:10.7554/elife.80360).

B1: HDV Ribozyme (parent)
chain: GGCCGGCAUGGUCCCAGCCUCCUCGCUGGCGCCGGCUGGGCAACAUUCCGAGGGGACCGUCCCCUCGGUAAUGGCGAAUGGGACCCA

Variants of: B1
Assay: self-cleavage, relative activity (ratio to wild type); higher = more cleavage; co-transcriptional
C18G U47C showed a self-cleavage of 0.185. In the case of C18G U60A, the self-cleavage is reported as 0. C18G U60C showed a self-cleavage of 0.0692. Variant C18G U65A has a self-cleavage of 0.138. Work on C18G U72A yielded a self-cleavage of 0. C18G U79C gave a self-cleavage of 0.0639. Work on C18U A42C yielded a self-cleavage of 0.185. For C18U A43C, the self-cleavage was 0.295. Work on C18U A43G yielded a self-cleavage of 0.17. C18U A51G gave a self-cleavage of 0.623. In the case of C18U A56C, the self-cleavage is reported as 0.628. In the case of C18U A56G, the self-cleavage is reported as 0.719. C18U A56U gave a self-cleavage of 0.745. Variant C18U A71C has a self-cleavage of 0.259. C18U A71U showed a self-cleavage of 0.724. For C18U A78G, the self-cleavage was 0.285. C18U A78U gave a self-cleavage of 0.0707. In the case of C18U A83G, the self-cleavage is reported as 0.356. C18U A87U showed a self-cleavage of 0.853. Work on C18U C19A yielded a self-cleavage of 0.0906. In the case of C18U C24U, the self-cleavage is reported as 0.141. With C18U C26A the self-cleavage was 0.591. For C18U C26U, the self-cleavage was 0.848. In the case of C18U C30U, the self-cleavage is reported as 0.185. With C18U C32G the self-cleavage was 0.032. For C18U C33A, the self-cleavage was 0.0354. Variant C18U C41U has a self-cleavage of 0.49. C18U C48G showed a self-cleavage of 0.683. Variant C18U C48U has a self-cleavage of 0.639. For C18U C49A, the self-cleavage was 0.623. In the case of C18U C49G, the self-cleavage is reported as 0.723. For C18U C58A, the self-cleavage was 0.612. Variant C18U C61A has a self-cleavage of 0.709. Variant C18U C61G has a self-cleavage of 0.53. C18U C75A gave a self-cleavage of 0.366. C18U C85U gave a self-cleavage of 0.582. With C18U C86G the self-cleavage was 0.704. For C18U G28C, the self-cleavage was 0.089. C18U G29A showed a self-cleavage of 1.06. C18U G29U showed a self-cleavage of 0.0639. In the case of C18U G35C, the self-cleavage is reported as 0.119. C18U G39C showed a self-cleavage of 0.0405. Variant C18U G50C has a self-cleavage of 0.705. Variant C18U G50U has a self-cleavage of 0.639. For C18U G53A, the self-cleavage was 0.639. C18U G53C gave a self-cleavage of 0.607. With C18U G54C the self-cleavage was 0.606. C18U G55C gave a self-cleavage of 0.893. For C18U G59C, the self-cleavage was 0.651. Work on C18U G68A yielded a self-cleavage of 0.739. Work on C18U G73C yielded a self-cleavage of 0.217. For C18U G74C, the self-cleavage was 0.0519. In the case of C18U G74U, the self-cleavage is reported as 0.166. With C18U G76C the self-cleavage was 0.978. In the case of C18U G80U, the self-cleavage is reported as 0.0989. Variant C18U G81A has a self-cleavage of 0.265. For C18U G81C, the self-cleavage was 0.136. Work on C18U G82U yielded a self-cleavage of 0.111. C18U U20C showed a self-cleavage of 0.0923. C18U U27A showed a self-cleavage of 0.95. Variant C18U U27C has a self-cleavage of 0.268. Work on C18U U46A yielded a self-cleavage of 0.291. With C18U U47G the self-cleavage was 0.608. For C18U U65A, the self-cleavage was 0.635. C18U U65G gave a self-cleavage of 0.554. With C18U U69A the self-cleavage was 0.397. For C18U U69C, the self-cleavage was 0.878. In the case of C19A A42G, the self-cleavage is reported as 0.0811. Work on C19A A56G yielded a self-cleavage of 0.256. Work on C19A A77G yielded a self-cleavage of 0.0302. C19A A78G gave a self-cleavage of 0.0845. C19A A78U gave a self-cleavage of 0.138. Work on C19A A83C yielded a self-cleavage of 0.0426. C19A A83U showed a self-cleavage of 0.138. Work on C19A A87C yielded a self-cleavage of 0.148. C19A A87G gave a self-cleavage of 0.11. C19A C22G showed a self-cleavage of 0.155. C19A C22U showed a self-cleavage of 0.0203. With C19A C24A the self-cleavage was 0.0831. C19A C32A gave a self-cleavage of 0.0604. In the case of C19A C33G, the self-cleavage is reported as 0.0475. With C19A C44G the self-cleavage was 0.0615. For C19A C48A, the self-cleavage was 0.0934. Variant C19A C48G has a self-cleavage of 0.22. C19A C48U gave a self-cleavage of 0.0683. Variant C19A C49U has a self-cleavage of 0.185. In the case of C19A C57A, the self-cleavage is reported as 0.0801. For C19A C57G, the self-cleavage was 0.119. Work on C19A C58A yielded a self-cleavage of 0.095. In the case of C19A C63A, the self-cleavage is reported as 0.153. Variant C19A C66U has a self-cleavage of 0.116. With C19A C84U the self-cleavage was 0.0804. Variant C19A G25A has a self-cleavage of 0.138. For C19A G28A, the self-cleavage was 0.225. In the case of C19A G29U, the self-cleavage is reported as 0.0733. With C19A G34A the self-cleavage was 0.0755. Variant C19A G34C has a self-cleavage of 0.0739. In the case of C19A G35A, the self-cleavage is reported as 0.111. In the case of C19A G35U, the self-cleavage is reported as 0.115. C19A G38C gave a self-cleavage of 0.0248. In the case of C19A G40A, the self-cleavage is reported as 0.109. In the case of C19A G50C, the self-cleavage is reported as 0.0923. For C19A G52U, the self-cleavage was 0.149. C19A G53A gave a self-cleavage of 0.149. C19A G53U gave a self-cleavage of 0.157. With C19A G54C the self-cleavage was 0.0817. Variant C19A G54U has a self-cleavage of 0.201. Work on C19A G55C yielded a self-cleavage of 0.0489. C19A G55U showed a self-cleavage of 0.0923. In the case of C19A G59U, the self-cleavage is reported as 0.134. Work on C19A G67A yielded a self-cleavage of 0.0941. C19A G67U showed a self-cleavage of 0.281. C19A G76A showed a self-cleavage of 0.185. C19A G80C gave a self-cleavage of 0.0665. In the case of C19A G81U, the self-cleavage is reported as 0.133. In the case of C19A U20A, the self-cleavage is reported as 0.0234. With C19A U46A the self-cleavage was 0.0707. C19A U65A showed a self-cleavage of 0.273. In the case of C19A U65C, the self-cleavage is reported as 0.155. C19A U65G gave a self-cleavage of 0.189. In the case of C19A U69C, the self-cleavage is reported as 0.146. With C19A U72A the self-cleavage was 0.0504. C19G A42G showed a self-cleavage of 0. In the case of C19G A45G, the self-cleavage is reported as 0.106. In the case of C19G A56C, the self-cleavage is reported as 0.0489. C19G A70C gave a self-cleavage of 0. Work on C19G A78C yielded a self-cleavage of 0.119. With C19G A83C the self-cleavage was 0. C19G C30A gave a self-cleavage of 0.0225. In the case of C19G C30G, the self-cleavage is reported as 0.0739. C19G C32G gave a self-cleavage of 0.0462. In the case of C19G C36U, the self-cleavage is reported as 0.0767. For C19G C41G, the self-cleavage was 0.0573. With C19G C44A the self-cleavage was 0. C19G C44G showed a self-cleavage of 0.0959. C19G C44U showed a self-cleavage of 0.0563. For C19G C48A, the self-cleavage was 0.115. C19G C48U gave a self-cleavage of 0.0733. With C19G C49G the self-cleavage was 0.0426. C19G C58G showed a self-cleavage of 0.0739. Work on C19G C61A yielded a self-cleavage of 0.106. Variant C19G C62G has a self-cleavage of 0.0791. With C19G C64A the self-cleavage was 0.0528. In the case of C19G C75A, the self-cleavage is reported as 0.0773. C19G C84U gave a self-cleavage of 0.0504. In the case of C19G C85G, the self-cleavage is reported as 0.111. Variant C19G C86A has a self-cleavage of 0. C19G C86G showed a self-cleavage of 0.104. Variant C19G G25U has a self-cleavage of 0.0923. For C19G G28U, the self-cleavage was 0.208. Work on C19G G31A yielded a self-cleavage of 0.0554. C19G G34A showed a self-cleavage of 0.248. C19G G34C showed a self-cleavage of 0.0978. Variant C19G G38C has a self-cleavage of 0.0639. For C19G G38U, the self-cleavage was 0.0852. Variant C19G G40U has a self-cleavage of 0.0997. Variant C19G G55A has a self-cleavage of 0.0346. With C19G G55C the self-cleavage was 0.0475. C19G G68C showed a self-cleavage of 0.0875. Work on C19G G73C yielded a self-cleavage of 0.0244. C19G G76C gave a self-cleavage of 0. In the case of C19G G80A, the self-cleavage is reported as 0.131. In the case of C19G G81U, the self-cleavage is reported as 0.0997. With C19G U20C the self-cleavage was 0.0692. C19G U37G gave a self-cleavage of 0.111. With C19G U46A the self-cleavage was 0. For C19G U46G, the self-cleavage was 0.107.
